Measurements from PMC4357719, “Roles of Rad51 paralogs for promoting homologous recombination in Leishmania infantum”.

Experiments:
Experiment in all cases: competition EMSA; preferred substrate in mixture; 25 mM MOPS pH 7.0, 0.2% Tween-20, 1 mM CaCl2, 2 mM DTT; 25 nM 32P-DNA; 37 C 10 min, then 0.2% glutaraldehyde 15 min; 8% TBE acrylamide gel
Settings in all cases: protein: recombinant; tags: C-terminal 10xHis; N-terminal GST cleaved with PreScission; label: 32P on strand 3 (JYM1745); D-loop: 1:2 with unpaired bubble, 3 paired to 2 in the bubble
LiRad51-3 = target: T1, LiRad51-3 (Leishmania infantum, UniProt E9AHR7 1-687)
T1 sequence: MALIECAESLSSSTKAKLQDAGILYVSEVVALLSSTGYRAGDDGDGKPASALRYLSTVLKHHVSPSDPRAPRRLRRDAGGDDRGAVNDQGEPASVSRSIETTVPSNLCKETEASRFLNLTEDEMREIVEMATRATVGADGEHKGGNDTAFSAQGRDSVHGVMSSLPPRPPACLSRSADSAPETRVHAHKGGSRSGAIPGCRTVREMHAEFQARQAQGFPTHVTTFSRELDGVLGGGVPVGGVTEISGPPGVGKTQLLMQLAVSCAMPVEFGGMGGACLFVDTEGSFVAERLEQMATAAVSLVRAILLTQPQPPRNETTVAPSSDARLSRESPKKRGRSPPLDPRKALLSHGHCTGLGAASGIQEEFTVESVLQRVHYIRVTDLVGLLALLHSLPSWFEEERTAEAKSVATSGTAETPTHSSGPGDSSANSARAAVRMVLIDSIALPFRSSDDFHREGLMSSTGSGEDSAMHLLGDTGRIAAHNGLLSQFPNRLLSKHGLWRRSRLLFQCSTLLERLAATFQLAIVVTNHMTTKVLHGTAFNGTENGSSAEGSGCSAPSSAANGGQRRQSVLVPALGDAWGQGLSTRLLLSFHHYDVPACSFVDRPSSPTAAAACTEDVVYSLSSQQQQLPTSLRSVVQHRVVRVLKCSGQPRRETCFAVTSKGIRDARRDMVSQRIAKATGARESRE

LiRad51-6 = target: T2, LiRad51-6 (Leishmania infantum, UniProt A4I499 1-649)
T2 sequence: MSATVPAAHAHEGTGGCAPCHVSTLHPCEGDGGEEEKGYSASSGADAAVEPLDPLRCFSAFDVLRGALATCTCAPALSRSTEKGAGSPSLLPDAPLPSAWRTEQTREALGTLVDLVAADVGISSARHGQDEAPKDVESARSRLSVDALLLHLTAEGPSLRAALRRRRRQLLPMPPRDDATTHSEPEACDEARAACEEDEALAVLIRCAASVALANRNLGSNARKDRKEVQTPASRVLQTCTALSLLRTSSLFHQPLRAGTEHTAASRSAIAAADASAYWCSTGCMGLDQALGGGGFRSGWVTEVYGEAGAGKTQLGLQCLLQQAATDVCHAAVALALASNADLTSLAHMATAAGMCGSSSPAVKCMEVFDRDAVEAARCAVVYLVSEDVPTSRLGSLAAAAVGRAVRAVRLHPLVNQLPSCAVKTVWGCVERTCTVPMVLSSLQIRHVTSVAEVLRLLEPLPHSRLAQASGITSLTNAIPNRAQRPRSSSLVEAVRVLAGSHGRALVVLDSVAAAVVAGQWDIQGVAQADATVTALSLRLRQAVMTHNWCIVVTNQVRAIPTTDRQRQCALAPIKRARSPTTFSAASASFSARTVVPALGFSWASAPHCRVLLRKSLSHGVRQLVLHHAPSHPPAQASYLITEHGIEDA

LiRad51-4 = target: T3, LiRad51-4 (Leishmania infantum, UniProt A4HUT5 1-518)
T3 sequence: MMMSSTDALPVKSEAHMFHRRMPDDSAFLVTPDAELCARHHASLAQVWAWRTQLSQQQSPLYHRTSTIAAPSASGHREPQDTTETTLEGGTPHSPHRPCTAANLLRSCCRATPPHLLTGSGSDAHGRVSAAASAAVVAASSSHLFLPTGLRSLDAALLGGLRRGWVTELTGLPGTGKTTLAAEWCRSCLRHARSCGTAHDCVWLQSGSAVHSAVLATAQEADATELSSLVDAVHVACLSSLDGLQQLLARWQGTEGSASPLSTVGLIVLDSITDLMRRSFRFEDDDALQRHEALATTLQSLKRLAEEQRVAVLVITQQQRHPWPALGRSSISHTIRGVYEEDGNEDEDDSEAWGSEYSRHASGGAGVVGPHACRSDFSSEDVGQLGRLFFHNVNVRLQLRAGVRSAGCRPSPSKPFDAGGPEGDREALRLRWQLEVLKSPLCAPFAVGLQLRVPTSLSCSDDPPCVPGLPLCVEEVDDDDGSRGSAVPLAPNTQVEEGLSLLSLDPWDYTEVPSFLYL

Measured: binding result

B1: D-loop (JYM1395/JYM1396/JYM1745) (structured_DNA)
DNA 1: GCCAGGGACGGGGTGAACCTGCAGGTGGGCGGCTGCTCATCGTAGGTTAGTATCGACCTATTGGTAGAATTCGGCAGCGTCATGCGACGGC
DNA 2: GCCGTCGCATGACGCTGCCGAATTCTACCACGCTACTAGGGTGCCTTGCTAGGACATCTTTGCCCACCTGCAGGTTCACCCCGTCCCTGGC
DNA 3: AAGATGTCCTAGCAAGGCACCCTAGTAGC
binds: all assays above
